# According to the DeepSol protein solubility set:
# Experiment: soluble on expression in E. coli; label from the status in PepcDB or PDB records
row,Sequence,soluble on expression in E. coli
1,MDINTDKYKNITRNLEREMINLNPIQRGGILPTESKKIIYEYWDGYSVCDYCSGRLDQIETPPINEFLEDMSKFLGMDITRPTHGARESKYAVMNSICKEGDYVVLDGNAHYTSYVALERAKLNYEKTDIEEYPTFRVIPESYAEKIDMLEDSKKNIGLILLTHVDGNYGNVADVEKVGKIAKSKGYPFLLNCAYSAGRMPIDGKKLNVDFIAASGHKSMAASGPCGLLSINKKYENEVLETSKVNVLKELQMLGCTSRGIPILSLMASFEHLIERVKKWDLELEKTRKVVNELEPLGFKQIGEKPRNHDIIRFETPILDEIAEKDKRRGFFFYEELKKRGIGGIRRGVTKEFKMSVYGLTNTQVDYVINSMKSIINELR,not soluble
2,MGSDKIHHHHHHMPDLTTAPDAEILMAQPRGFCAGVDRAIEIVERALTRFGAPIYVRHEIVHNAYVVADLRRKGAVFVRELDEVPAGATVIFSAHGVSKDVRAEAASRGLNVFDATCPLVTKVHVEVGKMRAEGCEIVMIGHRGHPEVEGTMGQAEGGMLLVESVADVAGLVVADPARLAYVTQTTLSVDETLEIVAALKARFPLIREPKKQDICYATQNRQDAVKFMAPQVDVVIVVGSPNSSNSNRLRELAARLGVPAYMVDAPDQVHPEWVAGKRRIGLTAGASAPEELAQSIVARLRELGAGHVRALAGIEENMAFPLPRGLQAAATVGVTA,not soluble
3,MGSDKIHHHHHHMTLVSTLSFLKKLNKNNNKEWFDKNRSAYEEAKKEVKALVQLVIEKTAVFDPSIASLEPKDCMFRINRDVRFSKDKSPYKTNMGFMIAPGGKKSIKGCYYVHIEPGNCFIAGGIWMPMPEHLKLIRQEIDYNGDALKKIFSSKDVKKYFSDFDEESKLIRMPKDYEETHPYAEWLKLKSFTVTFPIDEAIFSDKKVVEEITKPFKGIHALNAFLNGALDS,not soluble
4,MKVEILPFGNMDQWVTREIKESGIIGGNTKKVYAIGPTETIVGAKPYANKGGSPWGTSNVMARVSGITKTNTSVFPETRGDGFCARLDTRMESVKVLGIVDITVLAAGSMFLGTVHEPIKSTKNPNKMLQMGIPFTDRPSAIQFDYKVKMSDRENRIRATGFSKITDVPGKDFPAVILLLQKRWEDAKGNVYAKRIGTMVNYYYHSTDWKNGSKYDIMYGDITKDPAYKAHMMRLQASEYFTVNSKGESVPIHEVAWGEADDVPTHMILQFTSSHGGAYIGSPGNSLYIDNVKLIYLEHHHHHH,soluble
5,MKTIDCRNMACPAPVVTTKRALEEAGGETVRVLVDAGAPRENVARFAANRGFRVAVEEADGGFAITIGSGEGAPSAPAENPARQGRTVMLITSDRLGDGPEDLGRLLMKSFIITLLDQESLPDRMMFLNSGVLLTTEGSEVLQALEQLGNRGVEVLSCGVCLDFFHCKEKLAAGTVTNMFTTAEALLTAGSVIRLLEHHHHHH,soluble
6,MAHHHHHHMAQEISNLVKKYNVTWQQTMLRIYDPKETVEFYEKNFGMINIHTYHFNEYNFSLYFLITPPYDEEERKKLPEPNTKESEKYLWNLNTVCLELTYNHNSQEKLSNGNNENDRGFGHIAFNCNDVIEQCDNLFKKNVKFHKLPHETKMKTIGFALDPNNYWIEIVKRSNQVKWKNYKNITNFSQTMIRVKNPEKSLYFYIHILGMKLIHVKHCSDFSLYFLKSNYACAENNKEMIEDQSNKNTNEIYDFNSLKNSYQTDEDYENFKQSWEPVLELTHNHGTEDDDNFSYHNGNTEPRGFGHIGFLVNDLENYCKELETLNVTFKKKVTEGLMKNIAFIYDPDNYVIELIQRDTSFIAK,soluble
7,MSLTEYVHGYSEREALRLSEQAETLEKLLHHDTVYPPGAKVLEAGCGIGAQTVILAKNNPDAEITSIDISPESLEKARENTEKNGIKNVKFLQANIFSLPFEDSSFDHIFVCFVLEHLQSPEEALKSLKKVLKPGGTITVIEGDHGSCYFHPEGKKAIEAWNCLIRVQAYMKGNSLVGRQIYPLLQESGFEKIRVEPRMVYIDSSKPELVDGFILKTIIPMVEGVKEQSLKMQIIKEEEWEKGIEELHKTAEHGGTFCYTFFKGWGTKEGHHHHHH,soluble
8,MGSDKIHHHHHHMFDPETLRTFISVAETGSFSKAAERLCKTTATISYRIKLLEENTGVGLFFRTTRSVSLTAAGSHLLSQAKDWLAWLDSMPDELRQVNDGVERQVNIVVNNLLYSPQAVASLLSWLNARYPFTQFHFSRQIYMGVWDSLLYEGFSLAIGVTGTEPLANTFMLDPLGSVQWRFVMSADHPLAHVSGPLTEAQLRRFPAINIEDSARTLTKRVAWRLPGQKEIIVPDMETKIAAHLAGVGIGFVPQPLCQTLIDKNELVSCTIPTMRPPSPLSLAWHKFGGGKAVEDIVKLFTQRQPEIAGFLSIFNTVRC,not soluble
9,SVDMQSLDEEDFSVSKSSDADAEFDIVIGNIEDIIMEDEFQHLQQSFMEKYYLEFDDSEENKLSYTPIFNEYIEILEKHLEQQLVERIPGFNMDAFTHSLKQHKDEVSGDILDMLLTFTDFMAFKEMFTDYRAEKEGRGLDLSTGLVVKSLNSSSASPLTPSMASQSI,not soluble
10,MSLPQKSKVMHIARTLTGSTTQDEGQERQEAKTQDCQEDKRPETLVKGNGNNMECSRLREKQGVLIANRDGGTR,not soluble
11,MFPWIVIHEGNLFDTQKPLKCAILSEFQSMVSESDGPSSSKTGGISSSMTHPLDMLGDTYGIFDLMMDTSSIKPILTEILCSSDHWRRNGRHPVVLSTFPFSAIAREINASCSEALFYEIANVERMIVGDSRHAMNLGDQLAFEIFSTVMMISDLDIFLLGASNLYLSDRRGFNRDLTDVFWSSFISSLLMRNDRNRLFILIKGGLKYVSDLLSEYIVARISMELSDQTIRIRLIYL,soluble
12,MADKLAFTTADLVTCLICIREFDTKTRKPKVLHCGHTVCEECTDNLRDFNAPLLVVRCPTCRQFTKRPVAESCNTNFQLMGYLAEKEKFEREKKAKGGKPKKPDQVLTLKMARSNRMEIHVASKKDLEGPELYLRKDSEGNTHIVVAGLTGSPAEVMKFITENGISIETGVLMPQVVYDEGRTRGGTEKFAKVNSMAAGQSAIKCTKPPVKLEELEFHKTFELKVSEESGSLKMELVQKEEVPKNGFGVFEGCMTKPSAKRLKEFTDSCPGTSAEDEVQVIEPEPLPKRRRTRK,not soluble
13,MGSDKIHHHHHHMLKFGTAGIPINAKNTESALEYLKEIKLDAMELEFVRGVNLKAEKAESLAKNLKITLSAHAPYYINLNAKEPEKIESSIKRIVDSAKIISIFNKKNSENKNVVFHSGFYLKQDKDLVYEKIKVNIQKILKIMDENKINAILRPETTGKISQFGSIDELIQLSTEIDIMPCIDFSHVYARSLGKINDYDSFSNILSKLENNLGKKGIKDMHIHISGIDFGNGGEKKHFPILNSEFNYMAVLKALKDFECSGTVICESPKLEYDAVILKKNYEEL,not soluble
14,SNLDGSAQDPEKREYSSVCVGREDDIKKSERMTAVVHDREVVIFYHKGEYHAMDIRCYHSGGPLHLGDIEDFDGRPCIVCPWHKYKITLATGEGLYQSINPKDPSAKPKWCSKGIKQRIHTVTVDNGNIYVTLSNEPFKCDSDFYATGDFKVIKSSS,soluble
15,MPQVAKTYESLAREAADNNLDYEEYLLCVLEQEVHQRENNRIQRGIRQAGFPVIKTIESFDFLAIPSLNKPRVLKLMQGEYIRRRENVILIGNSGVGKTHIATALGYEACRQGMKVKFYTAAGLINELLAAQQEYRLNKLEKQWLAPHLVILDELGYVPFSKIGAELLFQFCSSRYERGSLIITTNLEFPRWTEVLGDEQMTAALLDRLTHNAHILNINGESYRFKQALSKQANND,soluble
16,DGDYIKDAVKEINYFMRDWRVDQVKSMDLRTVDIMAAAHNLMDVNEPYMLLSGYRSPQTNAMLRSRSRGVARNSLHMQGQAADLRLASRSVSQMANAAIACRAGGVGKYYRSNFVHMDCGEVRSWGG,not soluble
17,MSKGASAPQQQSAFKQLYTELFNNEGDFSKVSSNLKKPLKCYVKESYPHFLVTDGYFFVAPYFTKEAVNEFHAKFPNVNIVDLTDKVIVINNWSLELRRVNSAEVFTSYANLEARLIVHSFKPNLQERLNPTRYPVNLFRDDEFKTTIQHFRHTALQAAINKTVKGDNLVDISKVADAAGKKGKVDAGIVKASASKGDEFSDFSFKEGNTATLKIADIFVQEKGKDALNKAADHTDGAKVKGGAKGKGKAAAKAAKGKKLSAKKGDSSAADVRKSVDKIVKYTPSKGSRKDTPQKSQAPAAGKSSAKKGGKKAVPSAPSPSGKKSALTTDKMTMAQFVKYLDWHEKKKGGKVSSGGKVLGKRSAGKASATSGKASKASKKTAAKK,soluble
18,MGSDKIHHHHHHMCSVSGVLILNPKNFEKVELKLASILKKAEDRGRDSFGIVVIQKDGTVKVRKSIGKPSEKEELLYGILDEDSRVVIANNRAEPTTEYVRQKTEDDIQPFIGDRYIVTHNGIIANDLELEKKYELKRKTKIDSAILPLLLDKTWDGNLEALKGILEQIKGSFALVIGDKKNPDRIFLAQNFKPLYMAYDHSLESLFFTSLDEYFDAKPFDPVNITKLEPYSVVMVTSNKLITTLPIMEKRKKYRVLVVASGGLDSTVAATKLLREGHEVTLIHFNYHHKAEEKEREAVRKIAEYLQIPLLEINTDLFKIIGHATLIKGGGEIVKDRKGEEGAEFAHEWVPARNLIFFSVSLAIAEAYGYDAIASGINLEEAGAYPDNEMEFIRMLNKLSPYATGPNKRIEILMPVGNLVKHEIVKLGYEIGAPLHLTWSCYEGGQKHCGKCGPCYMRKMAFRINGLKDPVEYDEE,not soluble
19,MHRYPRPVSPPVYGPYGSGGHYNPYFHYGVSSFPSAPVHWPHLPSGHAAPPSYPMPYPKPGPLLPPPRPSFLAQFKNSDGTYDINKMMSTVGQMINTVNQVNGVLKGLLGTFKK,not soluble
20,MSLSSERVLSNARVVSAERVFVGSVLLRDGLIAAVDEGRSHLAGAEDLGGDYLLPGLVELHTDNLEKHMTPRPGVDWPSASAVLAHDAQIVSAGITTVFDALSIGDVNPKGKRMQQLPKMLEAIGEAAASGDARADHRLHLRCEVSHPQTLEVFRELVEHPLVQLVSVMDHAPGQRQFARLEKYREYYQGKYHLSDAEMDAFIVEQVANSERYSDAARAAIVDVCQGRGLSVASHDDATLAHVRESAGYGMAIAEFPTTVEAARASHEHGLQVLMGAPNVVRGGSHSGNVAAAQLAGIGVLDILSSDYYPASLLHAALLLAGEHSEYDAIRYDLPRAVAMVSRTPALAAGLTDRGEIRVGLRADLLQARALGNNQPVVRQVWRGGQRVFEGHHHHHH,soluble
21,MMQPLQLSAGGFAVVLGTNEIASAVAVHLHREGCCVVMSHDPFPPVIRRKMAFHDALYGDEVTVEGVRGERVDHATQIFKALRRSDNVLVSWLALPDLLPIGAVDVLIDARMQKHRVTPDLRGLARISVGLGPGFSTAVNCDVAIETRPGRSGLIVGAGWTDAADGVASPLGGVGAERFEYSQASGRWRTAVEIGSRVFSGFTIGHLGGVPVRAPCDGILRGVVRDGQDVPQGVKLLEVDSRGRHAQWTGIDDRGRGIAKAVLRAVQPQAEIRTSYAAQPIAVFLEHHHHHH,not soluble
22,MGSDKIHHHHHHMSKLIETRGLTKKYPGVVALDHVDFDLEPGEVHVLFGENGAGKSTLISMLAGANAPSEGRLLLNGEEVQFESVADAQAKGIYTVFQEFSLIPTLTVAQNIFLGWELRFGPFLDHRAMRARAREMLAELGFDIDPAAIVAQLSRAQQQMVEITKAFHGDLNVLILDEPTASLTDREVDHLFEFVAKLKAQGVGIVYISHRIQEFERIAERVTVLRDGAVIGTVAMAETDEDALVEMMTGRAFDQIYPSITFSPGETLLEVSDLTAPGISGACFQVRRGEVLGVAGLVGSGKSRLFRAVMGLTPVQSGSIRFKGADITNAPTRKIITRGMYYLSPDRKAEGLDLAKNARDNLAVNIISGQRHSGHGPFIPWGAVNARIDQISDHVELHAGYRSKPTSQLSGGNQQKVLFGKCFGQDADLIIFDEPTVGVDMGTRAALYLLIKELAEAGKAIVVISSDLPEAMNIAHRLLVLAHGTITARLSADEMSEDTVLKYFFDETGASQ,not soluble
